Assay results published in paper PMC3017643 (Journal of molecular biology, 2010).

Assays:
[1] = molecular target: full-length β-catenin (residues 1–781) (murine) (UniProt Q02248); assay: ITC
β-catenin 1-781 = β-catenin 1-781 (UniProt Q02248); assay: isothermal titration calorimetry; conditions: reference: non-phosphorylated Lef-1(1–63); sites S40
[2] = molecular target: T1, full-length β-catenin (residues 1–781) (murine, UniProt Q02248 1-781); assay: ITC
T1 sequence (looked up): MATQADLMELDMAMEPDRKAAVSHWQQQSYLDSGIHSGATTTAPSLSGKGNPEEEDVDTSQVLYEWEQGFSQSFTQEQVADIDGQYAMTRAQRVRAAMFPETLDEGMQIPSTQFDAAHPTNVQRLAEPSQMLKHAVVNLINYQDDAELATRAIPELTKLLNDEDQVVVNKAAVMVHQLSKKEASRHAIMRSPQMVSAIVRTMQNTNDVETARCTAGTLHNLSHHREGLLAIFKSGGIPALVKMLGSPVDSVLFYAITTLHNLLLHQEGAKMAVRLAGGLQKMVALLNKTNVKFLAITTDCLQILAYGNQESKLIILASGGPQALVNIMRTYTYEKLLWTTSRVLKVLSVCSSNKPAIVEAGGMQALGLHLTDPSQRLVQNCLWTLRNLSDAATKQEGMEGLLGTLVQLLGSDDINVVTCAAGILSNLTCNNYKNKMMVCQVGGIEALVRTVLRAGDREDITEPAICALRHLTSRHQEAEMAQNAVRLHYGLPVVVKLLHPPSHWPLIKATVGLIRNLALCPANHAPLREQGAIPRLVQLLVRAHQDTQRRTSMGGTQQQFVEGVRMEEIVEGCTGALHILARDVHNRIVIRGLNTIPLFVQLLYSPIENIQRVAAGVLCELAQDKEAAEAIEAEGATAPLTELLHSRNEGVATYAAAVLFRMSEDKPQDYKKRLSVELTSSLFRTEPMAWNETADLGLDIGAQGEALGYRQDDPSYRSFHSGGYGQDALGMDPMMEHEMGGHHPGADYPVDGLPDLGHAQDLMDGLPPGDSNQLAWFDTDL

“CK2-phosphorylated murine Lef-1(1–63), HPLC-separated, as used for ITC (from UniProt P27782 1-63) (domain or fragment)” was tested, and the Kd [1] was 35 nM and the dH [1] was -12.3 kcal/mol.

For “Lef-1 1-63 (from UniProt P27782) CK2-phosphorylated, HPLC-purified pLef-1(1–63)”, the KD (β-catenin 1-781) was “same; reference 23 (± 3) × 10−9”.

For “murine Lef-1(1–63), non-phosphorylated, as used for ITC (from UniProt P27782 1-63) (domain or fragment)”, the dH [1] was -13.1 kcal/mol.

B1: human TCF4 β-catenin binding region, residues 1–57 (domain or fragment, UniProt Q9NQB0 1-57, looked up)
chain: MPQLNGGGGDDLGANDELISFKDEGEQEEKSSENSSAERDLADVKSSLVNESETNQN
B1 was tested, and the Kd [2] was 16 nM and the dH [2] was -12.5 ± 0.1 kcal/mol.
